Article PMC5102827 (Oncogene, 2016)

Legend:
[1] = biological target: recombinant NOTCH3 protein (Homo sapiens, UniProt Q9UM47); experiment: SPR
[2] = biological target: NOTCH3 on the surface of cells expressing NOTCH3 (Homo sapiens, UniProt Q9UM47); experiment: flow cytometry on cells

- Kd [1]: 600 pM
- EC50 [2]: 140 pM
B1: MOR20358 anti-NOTCH3 NRR antibody (antibody, V domains shown)
VH: QVQLVQSGAEVKKPGSSVKVSCKASGGTFRTYAMHWVRQAPGQGLEWMGGIVPYHGITDYAQKFQGRVTITADESTSTAYMELSSLRSEDTAVYYCARDDYSTYAFAYWGQGTLVTVSS
VL: DIQMTQSPSSLSASVGDRVTITCRASQSIASYLAWYQQKPGKAPKLLIYDASNLQSGVPSRFSGSGSGTDFTLTISSLQPEDFATYYCQQAYKTPYTFGQGTKVEIK
